# Source: publication PMC6539025, “P-element Somatic Inhibitor Protein Binding a Target Sequence in dsx Pre-mRNA Conserved in Bombyx mori and Spodoptera litura”
# Assays:
# MBP-BmPSI = MBP-BmPSI (Bombyx mori, UniProt A8R081 1-703); assay: ITC; 25 C; n = 1.02; RNA dissolved in protein purification buffer, 20 mM Tris, 20 mM NaCl (pH not given); ITC at 25 C; EMSA buffer not given; details: protein: recombinant; tags: N-terminal His6-MBP-TEV
# SlPSI L127G = SlPSI L127G (Spodoptera litura, UniProt A0A9J7DW37 1-732, L127G); assay: competition; unlabeled CE1 against biotin-CE1; RNA dissolved in protein purification buffer, 20 mM Tris, 20 mM NaCl (pH not given); ITC at 25 C; EMSA buffer not given; details: protein: recombinant; tags: N-terminal His6-MBP-TEV
# SlPSI L127G, sequence (A0A9J7DW37 entry or part of it L127G | L127G L127G): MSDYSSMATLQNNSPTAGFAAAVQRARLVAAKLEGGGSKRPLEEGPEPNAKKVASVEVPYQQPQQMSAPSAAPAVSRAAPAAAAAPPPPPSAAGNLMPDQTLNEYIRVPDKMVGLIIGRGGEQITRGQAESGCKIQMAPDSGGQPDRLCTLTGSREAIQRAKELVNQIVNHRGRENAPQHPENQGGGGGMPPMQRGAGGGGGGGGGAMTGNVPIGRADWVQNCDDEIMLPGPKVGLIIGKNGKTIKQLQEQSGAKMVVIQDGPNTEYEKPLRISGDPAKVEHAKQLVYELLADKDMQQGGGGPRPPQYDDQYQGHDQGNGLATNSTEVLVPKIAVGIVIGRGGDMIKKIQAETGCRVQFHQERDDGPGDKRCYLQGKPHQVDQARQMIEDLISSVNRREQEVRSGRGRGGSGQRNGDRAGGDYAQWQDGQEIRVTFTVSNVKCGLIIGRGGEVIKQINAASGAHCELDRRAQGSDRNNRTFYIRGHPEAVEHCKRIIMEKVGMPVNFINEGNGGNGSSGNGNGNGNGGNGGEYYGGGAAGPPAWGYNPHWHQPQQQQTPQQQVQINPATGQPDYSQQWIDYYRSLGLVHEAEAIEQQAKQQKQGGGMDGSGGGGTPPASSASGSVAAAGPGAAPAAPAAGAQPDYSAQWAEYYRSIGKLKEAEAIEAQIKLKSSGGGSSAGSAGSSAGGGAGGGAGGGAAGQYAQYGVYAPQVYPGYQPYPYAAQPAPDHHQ
# MBP-BmPSI, sequence (A8R081 entry or part of it): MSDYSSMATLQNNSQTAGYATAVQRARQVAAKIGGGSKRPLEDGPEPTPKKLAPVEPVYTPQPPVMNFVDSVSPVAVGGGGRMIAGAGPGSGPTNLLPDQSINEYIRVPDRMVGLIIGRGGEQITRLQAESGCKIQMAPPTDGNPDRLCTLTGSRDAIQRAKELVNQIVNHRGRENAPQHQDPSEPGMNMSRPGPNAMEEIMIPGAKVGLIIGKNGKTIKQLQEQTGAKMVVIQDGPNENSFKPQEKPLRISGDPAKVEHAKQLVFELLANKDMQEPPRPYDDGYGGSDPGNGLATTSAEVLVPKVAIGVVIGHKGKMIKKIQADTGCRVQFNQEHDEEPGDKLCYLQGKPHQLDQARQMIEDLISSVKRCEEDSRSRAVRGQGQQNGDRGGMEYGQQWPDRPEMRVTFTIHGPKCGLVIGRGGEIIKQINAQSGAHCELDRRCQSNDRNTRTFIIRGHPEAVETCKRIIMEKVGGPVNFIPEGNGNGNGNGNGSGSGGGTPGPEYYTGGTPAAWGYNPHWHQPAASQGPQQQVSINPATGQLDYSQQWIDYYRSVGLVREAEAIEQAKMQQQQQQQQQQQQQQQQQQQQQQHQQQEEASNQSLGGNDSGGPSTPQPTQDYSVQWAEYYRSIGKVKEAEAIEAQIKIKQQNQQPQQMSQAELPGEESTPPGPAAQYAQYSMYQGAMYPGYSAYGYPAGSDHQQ
binder,measurement,setting,value
"UUAAUAAUAUAAGUGGUGUA (ssRNA) [CE1 RNA, unlabeled]",Ka,MBP-BmPSI,1.74e+07 M⁻¹
same,binding result,SlPSI L127G,binds
